The text below walks through data of publication doi:10.1101/2024.09.29.615664.

For the assay, the target named is reconstituted mononucleosome with unmodified H3K56 (UniProt P68431). Briefly: pull-down.

Regarding “MutSβ (MSH2-MSH3 complex), purified (from UniProt P43246;P20585)”, the fold of MSH3 pulled down against the H3K56ac-nucleosome turned out to be 4 fold.
